Source: US20230122364A1 (VANDERBILT UNIVERSITY, published 2023)
Residue numbers refer to the chain shown, from its start.

B1: COV2-2103 (antibody, V domains shown)
VH: EVQLVESGGGLVQPGGSLRLSCAASGFTFSRHWMTWVRQAPGKGLEWVANIKQDGSEKYYVDSVKGRLTISRDNAKNSLYLQMNSLRAEDTAVYYCARLGFYYGGADYWGQGTLVTVSS
VL: NFMLTQPHSVSESPGKTVTISCTGSSGSIASNYVQWYQQRPGSAPTTVISEDNQRPSGVPDRFSGSIDSSSNSASLTISGLKTEDEADYYCQSYDGINRAWVFGGGTKLTVL
B2: COV2-2113 (antibody, V domains shown)
VH: EVQLVESGGGLIQPGGSLRLSCAASEVTVSSNYMSWVRQAPGKGLEWVSLIYSGGTTYYADSVKGRFTISRDNSKNTLYLQMNSLRAEDTAVYYCARDFLRWHDLWGQGTLVTVSS
VL: DIQMTQSPSSLSASVGDRVTITCQASQDINNYLNWYQQKPGKAPKLLIYDASNLETGVPLRFSGSGSGTDFIFTISSLQPEDIATYYCQQYDNLPPVFGGGTKVEIK
B3: COV2-2132 (antibody, V domains shown)
VH: B2 VH
VL: B2 VL with I72T
B4: COV2-2046 (antibody, V domains shown)
VH: EVQLVESGGGLVQPGRSLRLSCAASGFTFDDYAMHWVRQAPGKGLEWVSGISWNSGSIAYTDSVKGRFTISRDNAKNSLYLQMNSLRAEDTALYYCAKAHSTGHQYYYGMDVWGQGTTVTVSS
VL: DIQMTQSPSSLSASVGDRVTITCRASQSISSFLNWYQQKPGKAPKLLIYAAFNLQSGVPSRFSGSGSGTDFTLTISSLQSEDFATYYCQQSYNTPYTFGQGTKLEIK
B5: COV2-2098 (antibody, V domains shown)
VH: EVQLLESGGGLIQPGGSLRLSCAASGFTFSNYAMSWVRQAPGKGLEWVSGIISTSGGATYNADSVRGRFTTSRDNSKNILYLQMNSLRGEDTAVYYCVKGLFDWFPLWGQGTMVTVSS
VL: DIVMTQSPATLSVSPGERAILSCRASQSVRSNLAWYQQKPGQAPRLLISGASTRATAIPARFSGSGSGTEFTLTITSLQSEDCAVYYCHQYNNWPQTFGQGTKVEIK
B6: COV2-2961 (antibody, V domains shown)
VH: EVQLVQSGPEVKKPGTSVKVSCKASGFTFMSSAVQWVRQARGQRLEWIGWIVIGSGNTNYAQKFQERVTITRDMSTSTAYMELSSLRSEDTAVYYCAAPYCSSISCNDGFDIWGQGTMVTVSS
VL: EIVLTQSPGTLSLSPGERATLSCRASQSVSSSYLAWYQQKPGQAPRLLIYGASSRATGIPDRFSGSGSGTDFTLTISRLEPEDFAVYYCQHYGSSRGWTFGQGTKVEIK
B7: COV2-2068 (antibody, V domains shown)
VH: EVQLVESGGGLVQPGGSLRLSCAASGFTVSSNYMSWVRQAPGKGLEWVSVIYPGGSAFYADSVKGRFTISRHNSNNTLCLQMNSLRTEDTAVYYCARSYDILTGYRDAFDIWGQGTMVTVSS
VL: QSVLTQPPSVSGAPGQRVTISCTGSSSNIGSGSDVHWYQQLPGTAPKLLIYGNTNRPSGVPDRFSGSKSGTSASLAITGLQAEDEADYYCQSYDSRLSGFVVFGGGTKLTVL
B8: COV2-2050 (antibody, V domains shown)
VH: QVQLVQSGAEVKKPGASVKVSCKASGYTFTDYYMHWVRQAPGQGLEWMGWINPNSRGTNYAQKFQGRVTMTRDTSISTVYMELSRLTSDDTAVYYCARVVVLGYGRPNNYYDGRNVWDYWGQGTLVTVSS
VL: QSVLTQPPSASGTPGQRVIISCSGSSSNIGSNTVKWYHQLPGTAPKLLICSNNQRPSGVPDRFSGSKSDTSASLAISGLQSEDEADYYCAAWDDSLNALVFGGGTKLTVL
B9: COV2-2082 (antibody, V domains shown)
VH: EVQLVESGGGVVRPGGSLRLSCAASGFIFDDYDMTWVRQAPGKGLEWVSGISWNGGNTGYADSVKGRFTISRDNAKNSLYLQMNSLRAEDTALYHCAVIMSPIPRYSGYDWAGGAFDIWGQGTMVTVSS
VL: SSELTQDPAVSVALGQTVRITCQGDSLRSYYASWYQQKPGQVPILVIYDKNNRPSGIPDRFSGSSSGNTASLTITGAQAEDEADYYCNSRDSSGNAVVFGGGTKLTVL

The binders below were run against T1, prefusion conformation-stabilized SARS-CoV-2 spike ectodomain (S2Pecto) protein (SARS-CoV-2, UniProt P0DTC2 14-1213; P10104 458-484) (assay: ELISA, purified IgG).

Binder	OD 450 nm [OD 450 nm]
B1	4.3
B2	4.4
B3	4.4
B4	4.3
B5	4.3
B6	3.6
B7	4.3
B8	4.3
B9	4.3

These binders were tested against T1, prefusion conformation-stabilized … (assay: ELISA on coated S2Pecto).

Binder	EC50 [µg/mL]
B1	0.0029
B2	0.0018
B5	0.0013
B7	0.0074
B8	0.0017
B9	0.0011

Each binder was assayed against T1, prefusion conformation-stabilized … (assay: competition ELISA on coated S2Pecto; hACE2-FLAG binding inhibited).

Binder	IC50 [µg/mL]
B1	0.079
B2	0.06
B5	0.048
B7	0.166
B8	0.063
B9	0.043
